Source: patent publication US20240262929A1 (IBIO, published 2024)

Columns and labels:
[1] = biological target: T1, MUC16 on OVCAR-3 (MUC16high) and SKOV-3 (MUC16low) ovarian cancer cells (UniProt Q8WXI7 1-14507, limits assumed); experiment: flow cytometry, hybridoma supernatant on OVCAR-3 or SKOV-3 cells (FIG. 5B)
T1 construct: whole, on cells; also called MUC16high cells; MUC16low cells
Method: Methods: Hybridoma supernatants were diluted 1:2 into FACS buffer containing OVCAR-3 or SKOV-3 cells and incubated for 30 minutes, then washed once with FACS buffer. 2 ug/mL APC labeled goat anti-mouse Fc secondary antibody diluted in FACS buffer was added to the cells and incubated for 20 minutes, then washed once with FACS buffer. Flow cytometry was performed with 20,000 cells per sample.

[2] = biological target: T2, engineered epitope 1, 58-mer of MUC16 non-shed domain, glycosylated (N-glycosylated (expressed in mammalian cells, used in glycosylated form); biotinylated for the Octet assay); experiment: ELISA dose-response (FIG. 3)
T2 peptide: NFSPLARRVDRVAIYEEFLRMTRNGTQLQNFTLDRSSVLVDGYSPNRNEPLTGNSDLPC

[3] = biological target: T3, engineered epitope 2, 29-mer of MUC16 non-shed domain, aglycosylated (aglycosylated (produced synthetically); biotinylated for the Octet assay); experiment: ELISA dose-response (FIG. 3)
T3 peptide: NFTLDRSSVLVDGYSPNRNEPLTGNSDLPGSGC

[4] = biological target: T4, engineered epitope 1, 58-mer of MUC16 non-shed domain, glycosylated (N-glycosylated (expressed in mammalian cells, used in glycosylated form); biotinylated for the Octet assay); experiment: ELISA
T4 peptide: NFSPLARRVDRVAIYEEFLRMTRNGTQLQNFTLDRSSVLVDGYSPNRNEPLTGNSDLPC

[5] = biological target: T5, engineered epitope 2, 29-mer of MUC16 non-shed domain, aglycosylated (aglycosylated (produced synthetically); biotinylated for the Octet assay); experiment: ELISA
T5 peptide: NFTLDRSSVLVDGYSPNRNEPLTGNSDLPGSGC

[6] = biological target: T6, 230-mer MUC16 shed domain (UniProt Q8WXI7 14164-14393, biotinylated for the Octet assay); experiment: BLI (Octet), biotinylated 230-mer shed domain on streptavidin biosensor, increasing concentrations of purified antibody
T6 construct: domain: 230-mer MUC16 shed domain
T6 sequence: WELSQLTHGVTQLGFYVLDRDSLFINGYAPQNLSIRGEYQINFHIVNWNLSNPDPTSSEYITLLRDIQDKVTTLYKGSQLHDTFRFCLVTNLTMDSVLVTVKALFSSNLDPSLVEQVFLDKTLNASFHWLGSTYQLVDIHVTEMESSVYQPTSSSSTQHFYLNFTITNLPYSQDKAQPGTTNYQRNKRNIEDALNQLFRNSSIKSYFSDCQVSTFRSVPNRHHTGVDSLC
Method: Methods: Biotinylated 29-mer engineered epitope, glycosylated 58-mer engineered epitope, 230-mer MUC16 shed domain and 288-mer MUC16 extra-cellular domain were immobilized on a Pall Octet 384-Red streptavidin biosensor. Immobilized biosensor tips were dipped into increasing concentration of purified antibody with a 4 minute association followed by a 3 minute dissociation.

[7] = biological target: T2, engineered epitope 1, 58-mer of MUC16 …; experiment: ELISA dose-response (FIG. 6)
[8] = biological target: T3, engineered epitope 2, 29-mer of MUC16 …; experiment: ELISA dose-response (FIG. 6)
[9] = biological target: T6, 230-mer MUC16 shed domain; experiment: binding graphs of FIG. 7A (presumably BLI as for FIG. 5A)
[10] = biological target: T1, MUC16 on OVCAR-3 (MUC16high) and SKOV-3 …; experiment: flow cytometry on MUC16high and MUC16low cells (FIG. 7B)
[11] = biological target: T4, engineered epitope 1, 58-mer of MUC16 …; experiment: ELISA
[12] = biological target: T5, engineered epitope 2, 29-mer of MUC16 …; experiment: ELISA
[13] = biological target: T3, engineered epitope 2, 29-mer of MUC16 …; experiment: binding graphs of FIG. 10 (presumably BLI as for FIG. 5A)
[14] = biological target: T6, 230-mer MUC16 shed domain; experiment: as above
[15] = biological target: T2, engineered epitope 1, 58-mer of MUC16 …; experiment: hybridoma ELISA screen / dose-response (FIG. 8)
[16] = biological target: T1, MUC16 on OVCAR-3 (MUC16high) and SKOV-3 …; experiment: cell binding on OVCAR3 cells (FIG. 9A)
[17] = biological target: T4, engineered epitope 1, 58-mer of MUC16 …; experiment: ELISA; table columns appear swapped relative to plotted curves
[18] = biological target: T5, engineered epitope 2, 29-mer of MUC16 …; experiment: as above

B1: 1D7 anti-MUC16 clone (antibody, V domains shown)
VH: EVMLVESGGGLVKPGGSLKLSCVASGFTFSSFAMSWVRQTPEKRLEWVAIISSGGGYIYYADSMTGRFTISRDNAKNTLYLQMSSLRSEDTAMYYCARLGGDYDEFYAKDYWGQGTSVTVSS
VL: DIQMTQSSSSFSVSLGDRVTITCKASEDIYNRLAWYQQKPGNAPRLLISGATSLETGVPSRFSGSGSGKDYTLSITSLQTEDVATYYCQQYWSTWTFGGGTKLEIK
notes: Hybridoma antibody from immunized Balb/c mice; Used as purified antibody in BLI and as hybridoma supernatant in flow cytometry; also called clone 1D7
[1]
  binding result: binds
[2]
  binding result: binds
[3]
  binding result: binds
[4]
  EC50: 510 pM
[5]
  EC50: 560 pM
[6]
  binding result: no binding

B2: 8G4 anti-MUC16 clone (antibody, V domains shown)
VH: QIQLVQSGPELKMPGETVKISCKASGYTFTNFGMNWVKQAPGKALKWMGWINTNTGKPTYFEEFKGRFAFSLETSASTAYLQINNLKNEDTATYFCARRWDRSAWFAYWGQGTLVTVSA
VL: QAVVTQESALTTSPGETVTLTCRSSTGAVTTSNYANWVQEKPDHLFTGLIGGTNDRSPGVPARFSGSLIGDKAALTITGAQTEDEAIYFCALWYSNHWVFGGGTKLTVL
notes: Hybridoma antibody from immunized Balb/c mice; also called clone 8G4
[7]
  binding result: binds
[8]
  binding result: binds
[9]
  binding result: no binding
[10]
  binding result: binds
[11]
  EC50: 190 pM
[12]
  EC50: 230 pM

B3: 21G6 anti-MUC16 clone (antibody, V domains shown)
VH: EVQLEESGPGLVKPSQSLSLTCTVTGYSITSDYAWNWIRQFPGNKLEWMGYISYSGSTIYNPSLKSRISITRDTSKNQFFLHLNSVTTEDTATYYCATLGLDYWGQGTTLTVSS
VL: DFVMTQSPSSLAVSVGEKVTMSCKSSQSLLYSSNQKNYLAWYQQKPGQSPKLLIYWASTRGSGVPDRFTGSGSGTDFTLTISSVKAEDLAVYYCQQYHSYRTFGGGTKLEIK
notes: Hybridoma antibody from immunized Balb/c mice; also called clone 21G6
[13]
  binding result: binds
[14]
  binding result: no binding
[15]
  binding result: binds
[16]
  binding result: binds
[17]
  EC50: 680 pM
[18]
  EC50: 3400 pM
